In patent US20200199236A1:

Experiments:
[1] = molecular target: FcγRIIIa 158V (UniProt P08637); assay: biosensor with SA sensor, biotin-FcγRIIIa 158V loaded, antibody in solution (7 concentrations, 2x gradient from 500 nM)
[2] = molecular target: FcγRIIIa 158F (UniProt P08637); assay: biosensor with SA sensor, biotin-FcγRIIIa 158F loaded, antibody in solution
FcγRIIIa 158F, sequence (P08637 17-208 limits assumed): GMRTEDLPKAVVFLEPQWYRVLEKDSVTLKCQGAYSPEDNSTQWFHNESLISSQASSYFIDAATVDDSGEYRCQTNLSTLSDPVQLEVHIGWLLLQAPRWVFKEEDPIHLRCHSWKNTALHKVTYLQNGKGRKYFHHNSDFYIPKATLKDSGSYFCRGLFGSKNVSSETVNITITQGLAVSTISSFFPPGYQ

FcγRIIIa 158V, sequence (P08637 17-208 F176V): as the sequence (P08637 17-208 limits assumed) above, with F160V counted along it

A Kd [1] of 36.8 nM and a Kd [2] of 226 nM were found for Obinutuzumab (antibody) in this work.
